Reference: article PMC6073470 (International Journal of Molecular Sciences, 2018)
Where a chain is given by its changes, count along the chain named. Numbers in names are those of the source. Read-outs that look alike come from different tables or passages of the source. Each block holds one binder with its values, some of them ahead of it.

What was measured:
[1] = molecular target: the molecule itself; experiment: SEC; Superdex 200 HR 10/30; 20 mM Tris/acetate pH 7.6, 150 mM NaCl, 0.1 mM EDTA, 0.1 mM PMSF, 15 mM beta-mercaptoethanol; 10-120 ug protein in 100 uL loaded; apparent mass from calibration, estimated number of subunits
[2] = molecular target: T1, human small heat shock protein HspB6, wild type (human), O14558; experiment: as above; conditions: remark: other sources report otherwise
T1 chain: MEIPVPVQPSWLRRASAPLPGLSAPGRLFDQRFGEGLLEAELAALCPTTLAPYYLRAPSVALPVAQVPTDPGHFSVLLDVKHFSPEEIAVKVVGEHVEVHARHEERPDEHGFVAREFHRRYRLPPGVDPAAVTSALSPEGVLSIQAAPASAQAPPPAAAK

[3] = molecular target: T2, human small heat shock protein HspB8, wild type (human), Q9UJY1; experiment: SEC-SAXS; online SEC-SAXS, SWING beamline; Shodex KW404-4F; 20 mM HEPES, 150 mM NaCl, pH 7.4, 2.5 mM DTT; 5 mg/mL (230 uM) sample applied; mass from the volume of correlation; conditions: remark: other sources report otherwise
T2 chain: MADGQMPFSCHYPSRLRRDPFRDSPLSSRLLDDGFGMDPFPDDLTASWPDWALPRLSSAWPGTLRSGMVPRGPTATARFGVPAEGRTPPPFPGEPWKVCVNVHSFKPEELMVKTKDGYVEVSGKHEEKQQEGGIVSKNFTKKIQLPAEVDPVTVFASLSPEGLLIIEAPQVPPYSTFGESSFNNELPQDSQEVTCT

[4] = molecular target: T2, human small heat shock protein HspB8, …; experiment: SEC; Superdex 200 HR 10/30; 20 mM Tris/acetate pH 7.6, 150 mM NaCl, 0.1 mM EDTA, 0.1 mM PMSF, 15 mM beta-mercaptoethanol; 10-120 ug protein in 100 uL loaded; apparent mass from calibration, estimated number of subunits; conditions: remark: other sources report otherwise
[5] = molecular target: the molecule itself; experiment: as above; remark: listed apart in the source

B1: R21A mutant of human HspB4 (natural protein, UniProt P02489 1-173, looked up)
chain: MDVTIQHPWFKRTLGPFYPSALFDQFFGEGLFEYDLLPFLSSTISPYYRQSLFRTVLDSGISEVRSDRDKFVIFLDVKHFSPEDLTVKVQDDFVEIHGKHNERQDDHGYISREFHRRYRLPSNVDQSALSCSLSADGMLTFCGPKIQTGLDATHAERAIPVSREEKPTSAPSS
- stoichiometry N [1]: ~30 monomers

B2: human small heat shock protein HspB5 (alphaB-crystallin), wild type (natural protein, UniProt P02511 1-175, looked up)
chain: MDIAIHHPWIRRPFFPFHSPSRLFDQFFGEHLLESDLFPTSTSLSPFYLRPPSFLRAPSWFDTGLSEMRLEKDRFSVNLDVKHFSPEELKVKVLGDVIEVHGKHEERQDEHGFISREFHRKYRIPADVDPLTITSSLSSDGVLTVNGPRKQVSGPERTIPITREEKPAVTAAPKK
notes: HspB5 (alphaB-crystallin), human; UniProt P02511; Expressed from pET23b; The printed monomeric mass (20.2 kDa) fits the whole protein; also called αB-crystallin; wild type HspB5; source: E. coli BL21(DE3)pLysS, purified (ammonium sulfate fractionation, HiTrap Q HP, Superdex-200 SEC)
- stoichiometry N [1]: ~27 monomers

B3: R22A mutant of human HspB5 (natural protein, UniProt P02511 1-175, looked up)
chain: B2 chain with R22A
notes: HspB5 (alphaB-crystallin), human; UniProt P02511; Arg22 of the RLFDQxFG motif replaced by Ala; Expressed from pET23b; also called R22A HspB5; source: E. coli BL21(DE3)pLysS, purified (ammonium sulfate fractionation, HiTrap Q HP, Superdex-200 SEC)
- stoichiometry N [1]: ~23 monomers

- stoichiometry N [2]: 3 monomers
B4: human small heat shock protein HspB6, wild type, O14558 1-160 (natural protein)
chain: T1 chain

B5: R27A mutant of human HspB6 (natural protein, UniProt O14558 1-160, looked up)
chain: T1 chain with R27A
notes: HspB6, human; UniProt O14558; Arg27 of the RLFDQxFG motif replaced by Ala; Expressed from pET23b; also called R27A HspB6; R27A mutant of HspB6
- stoichiometry N [1]: ~3 monomers

- stoichiometry N [3]: 2 monomers
- stoichiometry N [4]: 2 monomers
B6: human small heat shock protein HspB8, wild type, Q9UJY1 1-196 (natural protein)
chain: T2 chain

B7: R29A mutant of human HspB8 (natural protein, UniProt Q9UJY1 1-196, looked up)
chain: T2 chain with R29A
notes: HspB8, human; UniProt Q9UJY1; Arg29 of the RLFDQxFG motif replaced by Ala; Expressed from pET23b; also called R29A HspB8; source: E. coli BL21(DE3)pLysS, purified (ammonium sulfate fractionation, HiTrap Phenyl Sepharose, Superdex-200 SEC)
- stoichiometry N [1]: ~3 monomers
- stoichiometry N [5]: 4 monomers
